Measurements reported in the supplement of paper PMC10567573.

B1: CLK3 (parent)
chain: FGEDYYGPSRSRHRRRSRERGPYR

Variants of: B1
Experiment: protein stability index of a GFP-peptide fusion (GPS, HEK-293T) (PSI 1-6); higher = more stable
Conditions: c terminus: a fixed tail appended
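Note: lentivirally expressed fusions sorted by FACS into six bins by GFP to DsRed ratio, PSI derived from sequencing read proportions per bin multiplied by bin number.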

Variant | protein stability index
R15T | 1.91
R15L | 2.23
R15H | 2.18
R15N | 2.47
R15Q | 1.98
R15A | 2.18
R15F | 1.85
R15Y | 2.69
R15D | 2.34
R15P | 2.54
R15V | 2.1
R15C | 1.57
R15I | 2.43
R15W | 2.11
R15G | 1.98
R15M | 3.55
R15S | 2.04
R15K | 3.27
R15E | 1.95
G7A | 3.32
G7E | 4.32
G7K | 3.71
G7V | 4.13
G7S | 3.25

Variant | protein stability index
G7L | 2.96
G7D | 3.27
G7Q | 2.82
G7H | 2.07
G7Y | 2.78
G7T | 3.53
G7I | 4.23
G7R | 3.07
G7N | 2.06
G7M | 3.06
G7W | 2.06
G7C | 2.95
R16T | 2.2
R16A | 1.87
R16F | 1.64
R16E | 2.86
R16L | 1.62
R16K | 2.46
R16V | 2.23
R16S | 1.77
R16G | 2.52
R16N | 2.26
R16D | 2.15
R16P | 1.63

Variant | protein stability index
R16M | 1.9
R16C | 1.97
R16Q | 2.97
R16H | 2.35
R16W | 2.33
R16I | 1.96
R10T | 2.41
R10H | 3.62
R10M | 3.16
R10W | 2.85
R10Y | 2.12
R10N | 2.63
R10G | 3.15
R10K | 2.58
R10S | 3
R10L | 3.03
R10E | 3.36
R10I | 2.64
R10A | 2.9
R10C | 2.45
R10P | 2.82
R10D | 2.75
R10V | 2.52
R10Q | 2.7

Variant | protein stability index
R10F | 2.31
D4C | 2.81
D4P | 3.59
D4M | 2.29
D4R | 3.34
D4Q | 2.55
D4W | 2.16
D4N | 2.1
D4A | 3.2
D4H | 3.52
D4F | 3.2
D4G | 1.9
D4S | 2.21
D4E | 3.79
D4K | 3.44
D4T | 3.38
D4V | 3.58
D4I | 3.86
D4L | 2.5
D4Y | 3.63
R18E | 1.8
R18Q | 2.45
R18C | 2.21
R18A | 2.06

Variant | protein stability index
R18T | 2.32
R18S | 1.83
R18V | 2.29
R18P | 2.37
R18W | 3.29
R18N | 1.96
R18L | 2.22
R18F | 2.73
R18M | 2.89
R18G | 2.54
R18K | 2.46
R18Y | 2.36
R18I | 2.23
R12S | 2.1
R12F | 2.18
R12V | 2.11
R12M | 2.03
R12P | 2.39
R12H | 2.51
R12D | 1.86
R12Y | 2.58
R12L | 1.48
R12Q | 2.31
R12W | 2.44

Variant | protein stability index
R12T | 2.27
R12G | 2.16
R12A | 2.13
R12N | 2.52
R12K | 3.19
R12I | 1.95
R12E | 2.58
E3H | 4.21
E3W | 3.63
E3T | 3.75
E3K | 3.96
E3P | 3.41
E3F | 4.87
E3A | 3.9
E3V | 4.08
E3Q | 4.38
E3D | 2.86
E3C | 3.26
E3S | 1.73
E3M | 3.83
E3Y | 4.08
E3N | 3.63
E3G | 2.27
E3R | 3.46

Variant | protein stability index
E3L | 4.43
E3I | 4.08
F1Q | 5.13
F1I | 4.57
F1A | 4.83
F1G | 4.79
F1K | 4.99
F1L | 4.08
F1P | 4.87
F1S | 5.1
F1E | 5.1
F1R | 5.35
F1V | 5.33
F1D | 5.21
F1N | 4.44
F1W | 4.57
F1H | 4.65
F1Y | 3.36
F1T | 5.16
F1M | 4.92
F1C | 4.54
G2W | 4.3
G2Y | 4.01
G2Q | 2.49

Variant | protein stability index
G2K | 4.75
G2I | 1.99
G2T | 2.65
G2N | 4.4
G2M | 3.85
G2A | 2.87
G2F | 3.98
G2C | 2.52
G2V | 1.03
G2P | 3.52
G2S | 2.96
G2H | 2.5
G2L | 3.38
G2E | 4.89
G2D | 5.06
G2R | 4.89
H13V | 2.16
H13W | 1.93
H13K | 3.53
H13F | 2.64
H13Q | 2.48
H13G | 2.46
H13N | 2.55
H13L | 2.18

Variant | protein stability index
H13P | 2.96
H13A | 2.16
H13C | 2.29
H13D | 2.16
H13M | 3.25
H13I | 2.78
H13E | 2.21
H13T | 2.7
H13Y | 2.52
H13S | 2.52
S17K | 2.81
S17W | 4.02
S17I | 3.18
S17D | 2.58
S17N | 3.93
S17L | 2.43
S17Y | 3.4
S17M | 3.93
S17P | 2.6
S17C | 2.83
S17H | 3.52
S17E | 2.01
S17A | 2.85
S17V | 2.86

Variant | protein stability index
S17G | 3.1
S17T | 3.45
S17R | 4.26
S17F | 3.51
S17Q | 2.89
P8V | 1.42
P8K | 1.58
P8E | 2.56
P8S | 2.38
P8C | 2.48
P8Q | 1.59
P8T | 2.61
P8F | 1.74
P8N | 2.32
P8G | 2.3
P8A | 1.71
P8H | 1.61
P8R | 1.44
P8L | 1.51
P8W | 1.53
P8D | 1.92
P8I | 2.19
P8Y | 2.99
R14W | 3.15

Variant | protein stability index
R14S | 2.19
R14C | 1.85
R14K | 3.03
R14M | 2.13
R14E | 2.66
R14H | 2.44
R14L | 2.27
R14V | 2.22
R14F | 2.83
R14N | 2.89
R14Y | 2.02
R14P | 2.08
R14D | 2.31
R14G | 2.62
R14T | 2.42
R14Q | 2.25
R14I | 2.41
R14A | 1.88
Y6P | 4.78
Y6K | 5.1
Y6H | 4.07
Y6W | 2.52
Y6G | 5.15
Y6Q | 5.36

Variant | protein stability index
Y6L | 3.98
Y6S | 4.96
Y6R | 4.67
Y6D | 4.59
Y6N | 4.47
Y6C | 4.75
Y6F | 2.4
Y6T | 4.27
Y6E | 4.84
Y6M | 4.17
Y6I | 4.38
Y6A | 4.61
Y6V | 4.02
S9I | 2.47
S9Q | 2.63
S9N | 2.82
S9T | 2.58
S9L | 2.55
S9H | 2.33
S9F | 2.21
S9D | 2.84
S9E | 2.73
S9V | 2.38
S9M | 1.69

Variant | protein stability index
S9W | 2.17
S9Y | 2.56
S9K | 2.74
S9A | 2.39
S9P | 2.56
S9R | 3
S9C | 2.35
S9G | 3.16
Y5C | 4.48
Y5E | 4.86
Y5D | 4.95
Y5M | 3.5
Y5S | 3.8
Y5H | 4.64
Y5P | 4.3
Y5T | 5.24
Y5V | 4.36
Y5K | 5.11
Y5N | 4.51
Y5L | 4.47
Y5F | 3.11
Y5A | 3.53
Y5R | 5.21
Y5I | 4.44

Variant | protein stability index
Y5Q | 4.7
Y5G | 4
E19A | 3.59
S11D | 2.57
S11C | 2.95
S11V | 2.35
S11W | 2.3
S11T | 2.86
S11R | 2.53
S11N | 2.21
S11G | 2.58
S11I | 2.56
S11Y | 2.99
S11E | 2.02
S11K | 3.18
S11Q | 2.65
S11M | 2.13
S11F | 2.76
S11H | 3.12
S11L | 1.92
S11P | 3.1
S11A | 2.97
